{"source": "patent US20240307453A1", "about": "“METHODS FOR CONTROLLING BLEEDING IN A SUBJECT AFFLICTED WITH HERMANSKY PUDLAK SYNDROME USING PLATELET DERIVATIVE COMPOSITIONS” (Cellphire, Inc., priority 2023, published 2024)", "key": {"[1]": {"test_system": "phosphatidylserine (PS) surface on FPH", "experiment": "T-TAS of FPH with increasing dose of lactadherin", "format": "biochemical, human", "settings": "highest lactadherin concentration (200 μg/mL), FPH 8×10^4 cells/μl", "procedure": "Cells were adjusted to 8×10^4 cells/μl by diluting in Octaplas and in preparations of either 0, 100, or 200 μg/mL of lactadherin and incubated for 30 minutes at room temperature before acquisition on T-TAS® (Zacros®, zacros.con.co.jp). Samples (480 μl) were normalized to the above counts and then transferred to microcentrifuge tubes containing 20 ul of CaCTI (CaCl2 and corn trypsin inhibitor). The CaCTI-treated samples were transferred to sample reservoirs on a T-TAS®. The sample reservoirs were then inserted into the AR microfluidic chips and acquired on the T-TAS. […] This confirms the necessity of retaining the negatively charged PS surface on FPH to generate thrombin."}, "phosphatidylserine (PS)": {"test_system": "phosphatidylserine (PS)", "experiment": "FPH thrombin generation response to PS blocking by lactadherin", "format": "biochemical, human", "procedure": "Lactadherin (Haematologic Technologies, haemtech.com) was thawed per manufacturer instructions. FPHs were incubated with lactadherin at room temperature for 30 minutes at a concentration of 0, 25, 50, 100, and 200 μg/ml. 60 mM GPRP (BACHEM, bachem.com), thrombin (Sigma Aldrich, sigmaaldrich.com) and Octoplas (Octophrama, octopharma.com) were thawed according to manufacturer's guidelines. CLARIOstarPlus was used to perform TGA. A master mix of Octaplas, PRP reagent (Diagnostica Stago, Cat. No. 86196), and GPRP was prepared in a ratio of 14:3:1, respectively. Flu substrate and Fluo-buffer were combined according to manufacturer's guidelines to create FluCa (Diagnostica Stago, stago.com). Master mix and the FluCa solution were placed in the 37° C. air incubator with agitation for 45±5 minutes. […] 10 μl of each sample was dispensed into selected wells of a 96-well plate (Corning, corning.com) by reverse pipetting. TGA dilution buffer for thrombin was used in the thrombin standard ladder. CLARIOstarPlus injectors 1 and 2 were primed with master mix and FluCa solution with 250 μl, then the injector was placed in the active position. The CLARIOstarPlus TGA program was loaded with parameters for TGA assay with injectors set to add 90 μl of master mix and 40 μl of FluCa solution to each well. Plate was inserted to be read."}}}
{"molecule": "lactadherin: lactadherin used to block PS expression (protein, UniProt Q95114 19-427, looked up) Lactadherin: ASGDFCDSSLCLHGGTCLLNEDRTPPFYCLCPEGFTGLLCNETEHGPCFPNPCHNDAECQVTDDSHRGDVFIQYICKCPLGYVGIHCETTCTSPLGMQTGAIADSQISASSMHLGFMGLQRWAPELARLHQTGIVNAWTSGNYDKNPWIQVNLMRKMWVTGVVTQGASRAGSAEYLKTFKVAYSTDGRQFQFIQVAGRSGDKIFIGNVNNSGLKINLFDTPLETQYVRLVPIICHRGCTLRFELLGCELNGCTEPLGLKDNTIPNKQITASSYYKTWGLSAFSWFPYYARLDNQGKFNAWTAQTNSASEWLQIDLGSQKRVTGIITQGARDFGHIQYVAAYRVAYGDDGVTWTEYKDPGASESKIFPGNMDNNSHKKNIFETPFQARFVRIQPVAWHNRITLRVELLGC", "values": [{"measurement": "effect on time to thrombus formation of FPH", "setting": "[1]", "value": "approximately doubled the time to thrombus formation"}, {"measurement": "thrombin generation of FPH", "setting": "phosphatidylserine (PS); lactadherin 0, 25, 50, 100, 200 μg/ml", "value": "decreasing thrombin generation"}, {"measurement": "maximum peak time of thrombin generation of FPH", "setting": "phosphatidylserine (PS); lactadherin 0-200 μg/ml, 1:64 dilution", "value": "increasing maximum peak time"}]}
